Measured values reported in patent US20200109390A1 (Chugai, published 2020).

Target: T1, human blood coagulation factor IX (human, UniProt P00740 47-461, Gla (gamma-carboxyglutamate) residues in the GLA domain of native FIX); the twelve Glu of the GLA domain are at positions 53, 54, 61, 63, 66, 67, 72, 73, 76, 79, 82 and 86 of SEQ ID NO: 1 (positions …)
T1 construct: The FIX co-administered with the antibodies was Christmassin M I.V; antibody A was raised against human FIXa; also called FIX; human FIX
T1 sequence (P00740 47-461): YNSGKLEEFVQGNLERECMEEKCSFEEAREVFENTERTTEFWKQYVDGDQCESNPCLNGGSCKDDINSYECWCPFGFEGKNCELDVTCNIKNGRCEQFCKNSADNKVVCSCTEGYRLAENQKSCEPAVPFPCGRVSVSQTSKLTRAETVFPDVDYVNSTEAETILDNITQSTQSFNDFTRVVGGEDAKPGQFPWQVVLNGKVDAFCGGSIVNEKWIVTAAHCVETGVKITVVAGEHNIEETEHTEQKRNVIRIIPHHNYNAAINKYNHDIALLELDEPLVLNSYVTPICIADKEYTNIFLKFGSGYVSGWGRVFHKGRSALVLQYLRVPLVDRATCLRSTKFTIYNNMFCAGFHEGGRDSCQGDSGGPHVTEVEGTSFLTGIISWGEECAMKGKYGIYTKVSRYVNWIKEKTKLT
Assay: not described (statement in Example 4)
Protocol: PK tests using mice were performed by the following method. Through the tail vein or under the dorsal skin of mice (C57BL/6J mouse, Charles River Japan), FIX (Christmassin M I.V.) was administered at a dose of 0.6 mg/kg by itself or simultaneously with 8 mg/kg of an anti-FIX antibody A or anti-FIX antibody B, in a single dose. Blood was collected five minutes, two hours, four hours, seven hours, one day, two days, seven days, 14 days, 21 days, and 28 days after the administration. The collected blood was immediately subjected to separation by centrifugation at 4° C. and 15,000 rpm for 15 minutes to obtain the plasma. The separated plasma was stored in a freezer set to −20° C. or lower until performing the measurements.
The concentration of FIX in mouse plasma was determined by ELISA. […] After stopping the reaction by adding a reaction-stopping solution (AssayPro), the 450-nm absorbance of the reaction solution in each well was measured using a microplate reader. The concentrations of FIX in mouse plasma were calculated from the absorbances of the calibration curve using SOFTmax PRO analysis software (Molecular Devices).

| Binder | binding result |
| --- | --- |
| anti-FIX antibody A (antibody, human IgG1, kappa, V domains shown, Obtained by immunizing an animal with human FIXa) VH: QVQLQQSGAELAKPGASVKLSCKASGYTFTSSWMHWIKQRPGQGLEWLGYINPSSGYTKYNRKFRDKATLTADKSSSTAYMQLTSLTYEDSAVYYCARGGNGYYFDYWGQGTTLTVSS VL: DIVMTQSHKFMSTSVGDRVSITCKASQDVGTAVAWYQQKPGQSPKLLIYWASTRHTGVPDRFTGSRYGTDFTLTISNVQSEDLADYLCQQYSNYITFGGGTKLELKR | binds |
| anti-FIX antibody B (antibody, human IgG1, kappa, V domains shown, expressed transiently in FS293 cells) VH: QVQLVQSGSELKKPGASVKVSCKASGYTFTNYGMNWVRQAPGQGLKWMGWINTRNGKSTYVDDFKGRFVFSLDSSVSTAYLQISSLKADDTAVYYCTREGNMDGYFPFTYWGQGTLVTVSS VL: QIVLTQSPSSLSASVGDRVTITCRASSSVNYMHWYQQKPGKAPKPWIYATSNLASGVPSRFSGSGSGTDYTFTISSLQPEDIATYYCQQWSINPRTFGQGTKVEIKR | binds |
